Data on three molecules can be found in publication PMC7224192, “MYC transcription activation mediated by OCT4 as a mechanism of resistance to 13-cisRA-mediated differentiation in neuroblastoma”.

The target of data set [1] is T1, OCT4 (human, UniProt Q01860 1-360). In words: EMSA; mono- and di-OCT4 complexes; 20 fmol probe; Panomics EMSA Gel Shift Kit per manufacturer; OCT4 0.5 mg as printed (likely ug), biotin probe 20 fmol; buffer, pH and temperature not stated. The settings on record: protein: commercial; label: biotin at 5' end.
Data set [2] deals with T1, OCT4. Briefly: EMSA; mono-OCT4 complex; 20 fmol probe; Panomics EMSA Gel Shift Kit per manufacturer; OCT4 0.5 mg as printed (likely ug), biotin probe 20 fmol; buffer, pH and temperature not stated. The settings on record: protein: commercial; label: biotin at 5' end. (In general: A gel shift assay detects complexes by their altered migration in electrophoresis.)

T1 sequence (Q01860 whole entry): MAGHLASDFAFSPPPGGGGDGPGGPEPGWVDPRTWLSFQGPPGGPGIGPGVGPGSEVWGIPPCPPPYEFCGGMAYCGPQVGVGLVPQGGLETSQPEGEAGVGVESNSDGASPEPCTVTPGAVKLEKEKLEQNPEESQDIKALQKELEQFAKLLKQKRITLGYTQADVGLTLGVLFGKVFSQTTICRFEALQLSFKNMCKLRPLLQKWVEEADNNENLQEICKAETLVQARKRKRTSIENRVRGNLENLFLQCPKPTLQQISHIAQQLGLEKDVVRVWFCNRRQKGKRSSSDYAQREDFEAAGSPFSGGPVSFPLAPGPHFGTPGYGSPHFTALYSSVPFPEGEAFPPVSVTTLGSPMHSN

B1: Biotin-MYC-1209/-1166 WT (OBS1) (dsDNA)
DNA 1: CTGTGCATACATAATGCATAATACATGACTCCCCCCAACAAATGC
DNA 2: GCATTTGTTGGGGGGAGTCATGTATTATGCATTATGTATGCACAG
Consider B1, for which the binding result with OCT4 [1] is on record as “binds”.

B2: Biotin-MYC-1173/-1145 WT (OBS2) (dsDNA)
DNA 1: ACAAATGCAATGGGAGTTTATTCATAAC
DNA 2: GTTATGAATAAACTCCCATTGCATTTGT
For the molecule B2, the binding result with OCT4 [2] is listed as “binds”.

B3: Biotin-MYC-1209/-1140 WT (OBS1+OBS2) (dsDNA)
DNA 1: CTGTGCATACATAATGCATAATACATGACTCCCCCCAACAAATGCAATGGGAGTTTATTCATAACGCGCT
DNA 2: AGCGCGTTATGAATAAACTCCCATTGCATTTGTTGGGGGGAGTCATGTATTATGCATTATGTATGCACAG
Turning to B3, the binding result with OCT4 [1] is listed as “binds”.
